Literature values as cited in PMC11281341.

Target: HIV-1 capsid protein (CA) CA (Human immunodeficiency virus 1) (UniProt O93182)
Sequence (O93182 133-363): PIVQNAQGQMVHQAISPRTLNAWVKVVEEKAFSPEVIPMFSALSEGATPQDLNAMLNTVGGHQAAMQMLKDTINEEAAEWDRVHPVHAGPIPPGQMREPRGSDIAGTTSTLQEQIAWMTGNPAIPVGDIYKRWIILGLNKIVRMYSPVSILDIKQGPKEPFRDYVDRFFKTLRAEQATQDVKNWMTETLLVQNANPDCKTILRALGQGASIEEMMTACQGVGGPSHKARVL

TRIM5alpha SPRY, sequence (Q0PF16 283-497): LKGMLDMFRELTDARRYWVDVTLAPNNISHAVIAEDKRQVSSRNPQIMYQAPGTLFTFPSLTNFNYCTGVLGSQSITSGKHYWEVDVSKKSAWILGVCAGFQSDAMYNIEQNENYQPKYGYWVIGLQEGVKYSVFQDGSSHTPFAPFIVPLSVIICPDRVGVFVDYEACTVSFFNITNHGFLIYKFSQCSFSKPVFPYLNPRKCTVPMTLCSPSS

In the case of TRIM5alpha SPRY (from UniProt Q0PF16), the Kd is given as > 1 mM.
